According to US20070264253A1 (Eli Lilly, published 2007):

How the values were obtained:
EGFR-AP fusion protein [1] = target: T1, EGFR-AP fusion protein (UniProt P00533 25-645); assay: BIAcore SPR, EGFR-AP immobilised on the chip
T1 construct: Immobilised on the BIAcore sensor chip; Neither the species nor the residues of the EGFR part are stated
Procedure: (§1) Sensorgrams were obtained at each concentration and were analyzed with BIA Evaluation 2.0, a program to determine the rate constants, kₒₙ and koff. The affinity constant, Kd, was calculated from the ratio of rate constants, koff/kₒₙ.

EGFR-AP fusion protein [2] = target: T1, EGFR-AP fusion protein; assay: BIAcore SPR, EGFR-AP immobilised on the chip; koff/kon
Procedure: as §1

koff (EGFR-AP fusion protein [1]) [s⁻¹] | kon (EGFR-AP fusion protein [1]) [M⁻¹ s⁻¹] | Kd (EGFR-AP fusion protein [2]) [nM] | Binder
0.00367 | 2.29e+06 | 1.78 | IMC-11F8 Fab (Fab, V domains shown) VH: QVQLQESGPGLVKPSQTLSLTCTVSGGSISSGDYYWSWIRQPPGKGLEWIGYIYYSGSTDYNPSLKSRVTMSVDTSKNQFSLKVNSVTAADTAVYYCARVSIFGVGTFDYWGQGTLVTVSS VL: EIVMTQSPATLSLSPGERATLSCRASQSVSSYLAWYQQKPGQAPRLLIYDASNRATGIPARFSGSGSGTDFTLTISSLEPEDFAVYYCHQYGSTPLTFGGGTKAEIK
0.00058 | 1.86e+06 | 0.32 | IMC-11F8 (full human IgG1 anti-EGFR antibody) (antibody, V domains shown, also called IMC-C11F8; 11F8 monoclonal antibody) VH: QVQLQESGPGLVKPSQTLSLTCTVSGGSISSGDYYWSWIRQPPGKGLEWIGYIYYSGSTDYNPSLKSRVTMSVDTSKNQFSLKVNSVTAADTAVYYCARVSIFGVGTFDYWGQGTLVTVSS VL: EIVMTQSPATLSLSPGERATLSCRASQSVSSYLAWYQQKPGQAPRLLIYDASNRATGIPARFSGSGSGTDFTLTISSLEPEDFAVYYCHQYGSTPLTFGGGTKAEIK
